B1: library; numbered along this chain (parent)
chain: MAAAGGARLLRAASAVLGGPAGRWLHHAGSRAGSSGLLRNRGPGGSAEASRSLSVSARARSSSEDKITVHFINRDGETLTTKGKVGDSLLDVVVENNLDIDGFGACEGTLACSTCHLIFEDHIYEKLDAITDEENDMLDLAYGLTDRSRLGCQICLTKSMDNMTVRVPETVADARQSIDVGKTS

Variants of: B1
Test: scaled log2 fold change in cell abundance, elesclomol vs control (0 = silent mean, 1 = nonsense mean) (scaled log2 ratio); higher = higher viability under elesclomol (loss of FDX1 cuproptosis function)
Settings: glucose 10 mM
[1] = with ABC1 FDX1 KO, elesclomol 5 nM, 14 days
[2] = with HEK293T FDX1 KO, elesclomol 40 nM, 11 days
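Further: variant abundance is its share of total variant reads in each endpoint sample, from next-generation sequencing of the integrated ORF PCR-amplified out of genomic DNA.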

Variant | scaled log2 fold change [1] | scaled log2 fold change [2]
MAAAGGARLLRAASAVLGGPAGRWLHHAGSRAGSSGLLRNRGPGGSAEASRSLSVSARARSSSEDKITVHFINRDGETLTTKGKVGDSLLDVVVENNLDIDGFGACEGTLACSTCHLIFEDHIYEKLDAITDEENDMLDGAYGLTDRSRLGCQICLTKSMDNMTVRVPETVADARQSIDVGKTS [L140G] | -0.344 | 0.395
MAAAGGARLLRAASAVLGGPAGRWLHHAGSRAGSSGLLRNRGPGGSAEASRSLSVSARARSSSEDKITVHFINRDGETLTTKGKVGDSLLDVVVENNLDIDGFGACEGTLACSTCHLIFEDHIYEKLDAITDEENDMLDEAYGLTDRSRLGCQICLTKSMDNMTVRVPETVADARQSIDVGKTS [L140E] | 0.271 | 
MAAAGGARLLRAASAVLGGPAGRWLHHAGSRAGSSGLLRNRGPGGSAEASRSLSVSARARSSSEDKITVHFINRDGETLTTKGKVGDSLLDVVVENNLDIDGFGACEGTLACSTCHLIFEDHIYEKLDAITDEENDMLDFAYGLTDRSRLGCQICLTKSMDNMTVRVPETVADARQSIDVGKTS [L140F] | -0.344 | 0.78
MAAAGGARLLRAASAVLGGPAGRWLHHAGSRAGSSGLLRNRGPGGSAEASRSLSVSARARSSSEDKITVHFINRDGETLTTKGKVGDSLLDVVVENNLDIDGFGACEGTLACSTCHLIFEDHIYEKLDAITDEENDMLDDAYGLTDRSRLGCQICLTKSMDNMTVRVPETVADARQSIDVGKTS [L140D] | -0.319 | -0.308
MAAAGGARLLRAASAVLGGPAGRWLHHAGSRAGSSGLLRNRGPGGSAEASRSLSVSARARSSSEDKITVHFINRDGETLTTKGKVGDSLLDVVVENNLDIDGFGACEGTLACSTCHLIFEDHIYEKLDAITDEENDMLDCAYGLTDRSRLGCQICLTKSMDNMTVRVPETVADARQSIDVGKTS [L140C] | -0.0723 | -0.467
MAAAGGARLLRAASAVLGGPAGRWLHHAGSRAGSSGLLRNRGPGGSAEASRSLSVSARARSSSEDKITVHFINRDGETLTTKGKVGDSLLDVVVENNLDIDGFGACEGTLACSTCHLIFEDHIYEKLDAITDEENDMLDAAYGLTDRSRLGCQICLTKSMDNMTVRVPETVADARQSIDVGKTS [L140A] | -0.069 | -1.25
MAAAGGARLLRAASAVLGGPAGRWLHHAGSRAGSSGLLRNRGPGGSAEASRSLSVSARARSSSEDKITVHFINRDGETLTTKGKVGDSLLDVVVENNLDIDGFGACEGTLACSTCHLIFEDHIYEKLDAITDEENDMLLLAYGLTDRSRLGCQICLTKSMDNMTVRVPETVADARQSIDVGKTS [D139L] | 0.0653 | -0.608
MAAAGGARLLRAASAVLGGPAGRWLHHAGSRAGSSGLLRNRGPGGSAEASRSLSVSARARSSSEDKITVHFINRDGETLTTKGKVGDSLLDVVVENNLDIDGFGACEGTLACSTCHLIFEDHIYEKLDAITDEENDMLKLAYGLTDRSRLGCQICLTKSMDNMTVRVPETVADARQSIDVGKTS [D139K] | 0.896 | 0.86
MAAAGGARLLRAASAVLGGPAGRWLHHAGSRAGSSGLLRNRGPGGSAEASRSLSVSARARSSSEDKITVHFINRDGETLTTKGKVGDSLLDVVVENNLDIDGFGACEGTLACSTCHLIFEDHIYEKLDAITDEENDMLNLAYGLTDRSRLGCQICLTKSMDNMTVRVPETVADARQSIDVGKTS [D139N] | -0.132 | 
MAAAGGARLLRAASAVLGGPAGRWLHHAGSRAGSSGLLRNRGPGGSAEASRSLSVSARARSSSEDKITVHFINRDGETLTTKGKVGDSLLDVVVENNLDIDGFGACEGTLACSTCHLIFEDHIYEKLDAITDEENDMLRLAYGLTDRSRLGCQICLTKSMDNMTVRVPETVADARQSIDVGKTS [D139R] | 0.938 | 1.09
MAAAGGARLLRAASAVLGGPAGRWLHHAGSRAGSSGLLRNRGPGGSAEASRSLSVSARARSSSEDKITVHFINRDGETLTTKGKVGDSLLDVVVENNLDIDGFGACEGTLACSTCHLIFEDHIYEKLDAITDEENDMLYLAYGLTDRSRLGCQICLTKSMDNMTVRVPETVADARQSIDVGKTS [D139Y] | -0.145 | 0.0051
MAAAGGARLLRAASAVLGGPAGRWLHHAGSRAGSSGLLRNRGPGGSAEASRSLSVSARARSSSEDKITVHFINRDGETLTTKGKVGDSLLDVVVENNLDIDGFGACEGTLACSTCHLIFEDHIYEKLDAITDEENDMLPLAYGLTDRSRLGCQICLTKSMDNMTVRVPETVADARQSIDVGKTS [D139P] | -0.0434 | -0.395
MAAAGGARLLRAASAVLGGPAGRWLHHAGSRAGSSGLLRNRGPGGSAEASRSLSVSARARSSSEDKITVHFINRDGETLTTKGKVGDSLLDVVVENNLDIDGFGACEGTLACSTCHLIFEDHIYEKLDAITDEENDMLSLAYGLTDRSRLGCQICLTKSMDNMTVRVPETVADARQSIDVGKTS [D139S] | -0.201 | -1.37
MAAAGGARLLRAASAVLGGPAGRWLHHAGSRAGSSGLLRNRGPGGSAEASRSLSVSARARSSSEDKITVHFINRDGETLTTKGKVGDSLLDVVVENNLDIDGFGACEGTLACSTCHLIFEDHIYEKLDAITDEENDMLVLAYGLTDRSRLGCQICLTKSMDNMTVRVPETVADARQSIDVGKTS [D139V] | 0.0114 | 
MAAAGGARLLRAASAVLGGPAGRWLHHAGSRAGSSGLLRNRGPGGSAEASRSLSVSARARSSSEDKITVHFINRDGETLTTKGKVGDSLLDVVVENNLDIDGFGACEGTLACSTCHLIFEDHIYEKLDAITDEENDMLWLAYGLTDRSRLGCQICLTKSMDNMTVRVPETVADARQSIDVGKTS [D139W] | 0.0888 | -0.429
MAAAGGARLLRAASAVLGGPAGRWLHHAGSRAGSSGLLRNRGPGGSAEASRSLSVSARARSSSEDKITVHFINRDGETLTTKGKVGDSLLDVVVENNLDIDGFGACEGTLACSTCHLIFEDHIYEKLDAITDEENDMLQLAYGLTDRSRLGCQICLTKSMDNMTVRVPETVADARQSIDVGKTS [D139Q] | -0.0276 | 0.00203
MAAAGGARLLRAASAVLGGPAGRWLHHAGSRAGSSGLLRNRGPGGSAEASRSLSVSARARSSSEDKITVHFINRDGETLTTKGKVGDSLLDVVVENNLDIDGFGACEGTLACSTCHLIFEDHIYEKLDAITDEENDMLMLAYGLTDRSRLGCQICLTKSMDNMTVRVPETVADARQSIDVGKTS [D139M] | 0.045 | 0.155
MAAAGGARLLRAASAVLGGPAGRWLHHAGSRAGSSGLLRNRGPGGSAEASRSLSVSARARSSSEDKITVHFINRDGETLTTKGKVGDSLLDVVVENNLDIDGFGACEGTLACSTCHLIFEDHIYEKLDAITDEENDMLTLAYGLTDRSRLGCQICLTKSMDNMTVRVPETVADARQSIDVGKTS [D139T] | -0.31 | -0.694

Reference: the supplement of paper PMC12855868
